# According to publication PMC3141380, “Crystal structure of alkyl hydroperoxidase D like protein PA0269 from Pseudomonas aeruginosa: Homology of the AhpD-like structural family” (BMC Structural Biology, 2011):
# B1: Alkyl hydroperoxidase D like protein PA0269 from Pseudomonas aeruginosa (natural protein, P. aeruginosa, UniProt Q9I6M1 1-145, looked up)
# chain: MTTRLEWAKASPDAYAAMLGLEKALAKAGLERPLIELVYLRTSQINGCAYCVNMHANDARKAGETEQRLQALCVWQETPYFTPRERAALAWTEQLARLSQGALPHGLLDELREHFDDKEIAELTLAVSAINAWNRFGVGMGMQPE
# modifications: selenomethionine (four Se-Met residues found in the structure, Se in partial occupancy)
# notes: PA0269 (AhpD-like protein), Pseudomonas aeruginosa strain 633 (ATCC 17933D) genomic DNA, full length protein of 145 aa, cloned in pET15b; A native sample with and without the His tag was also made; also called P. aeruginosa AhpD; putative AhpD; source: E. coli BL21 (DE3), M9 selenomethionine media, purified (DE52, Ni-NTA, Superdex 200 gel filtration)
# Experiments:
# [1] = target: the molecule itself; assay: SEC; Superdex 200 26/60, 10 mM HEPES pH 7.5, 0.25 M NaCl, 0.5 mM TCEP; data not shown
# [2] = target: the molecule itself; assay: crystal structure; SeMet protein, space group P6(3)22, one molecule in the asymmetric unit; hexamer built by crystallographic symmetry; crystals from 0.1 M Tris pH 7.6, 0.2 M NaCl, phosphate, 20°C
protein,measurement,setting,value
B1,stoichiometry N,[1],5.5
same,stoichiometry N,[2],6
